Data set [1] concerns HeLa Kyoto. Briefly: solubility in G1/S (NP-40 vs SDS abundance) (log2 ratio); higher = more soluble. The note with it: cell cycle stage: G1/S.
In data set [2] the test system is HeLa Kyoto. Briefly: melting temperature (median over replicates), in situ; higher = more thermally stable.
For data set [3], the system named is HeLa Kyoto. Briefly: solubility change mitosis vs G1/S (difference of NP-40 vs SDS log2 ratios) (log2 ratio difference); higher = more soluble in mitosis.
The test system of data set [4] is HeLa Kyoto. The data set can be described thus: thermal stability score vs G1/S (z-score of summed log2 fold changes over temperatures); higher = more thermally stable than in G1/S.
Where [5] appears, read: cell cycle stage: early G1 (4.5 h after nocodazole release).

The results in this text go back to the supplement of paper PMC5998384.
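Throughout, for melting temperature (median over replicates), in situ: HeLa Kyoto cells synchronized by double thymidine or nocodazole block, proteins quantified by TMT10plex mass spectrometry, three independent biological replicates.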
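Throughout, for solubility change mitosis vs G1/S (difference of NP-40 vs SDS log2 ratios): synchronized HeLa Kyoto cells (double thymidine block for G1/S, nocodazole release for mitosis), protein amounts in NP-40 versus SDS lysates quantified by mass spectrometry, three biological replicates.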
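Throughout, for solubility in G1/S (NP-40 vs SDS abundance): HeLa Kyoto cells arrested at G1/S by double thymidine block, proteins quantified by TMT10plex mass spectrometry in mild NP-40 versus SDS extracts, three biological replicates.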
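Throughout, for thermal stability score vs G1/S (z-score of summed log2 fold changes over temperatures): synchronized HeLa Kyoto cells, proteins quantified by TMT10plex mass spectrometry, three biological replicates, mitosis taken 0.5 h after nocodazole release, G1/S directly after double thymidine block.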

As to “MDLSGVKKKSLLGVKENNKKSSTRAPSPTKRKDRSDEKSKDRSKDKGATKESSEKDRGRDKTRKRRSASSGSSSTRSRSSSTSSSGSSTSTGSSSGSSSSSASSRSGSSSTSRSSSSSSSSGSPSPSRRRHDNRRRSRSKSKPPKRDEKERKRRSPSPKPTKVHIGRLTRNVTKDHIMEIFSTYGKIKMIDMPVERMHPHLSKGYAYVEFENPDEAEKALKHMDGGQIDGQEITATAVLAPWPRPPPRRFSPPRRMLPPPPMWRRSPPRMRRRSRSPRRRSPVRRRSRSPGRRRHRSRSSSNSSR [RNPS1]”, in data set [1], the “solubility in G1/S (log2)” value was -0.501. Also, the figures for the melting temperature in data set [2] (cell cycle stage: G1/S) and in data set [2] (cell cycle stage: mitosis) were 48.9 °C and 50 °C, respectively. Besides, the “solubility change mitosis (log2)” value in data set [3] was 0.52. Besides, the values for the thermal stability score in data set [4] (setting [5]) and in data set [4] (cell cycle stage: mitosis) were 0.608 and 1.88, respectively.

Take “MAAAAAEQQQFYLLLGNLLSPDNVVRKQAEETYENIPGQSKITFLLQAIRNTTAAEEARQMAAVLLRRLLSSAFDEVYPALPSDVQTAIKSELLMIIQMETQSSMRKKVCDIAAELARNLIDEDGNNQWPEGLKFLFDSVSSQNVGLREAALHIFWNFPGIFGNQQQHYLDVIKRMLVQCMQDQEHPSIRTLSARATAAFILANEHNVALFKHFADLLPGFLQAVNDSCYQNDDSVLKSLVEIADTVPKYLRPHLEATLQLSLKLCGDTSLNNMQRQLALEVIVTLSETAAAMLRKHTNIVAQTIPQMLAMMVDLEEDEDWANADELEDDDFDSNAVAGESALDRMACGLGGKLVLPMIKEHIMQMLQNPDWKYRHAGLMALSAIGEGCHQQMEGILNEIVNFVLLFLQDPHPRVRYAACNAVGQMATDFAPGFQKKFHEKVIAALLQTMEDQGNQRVQAHAAAALINFTEDCPKSLLIPYLDNLVKHLHSIMVLKLQELIQKGTKLVLEQVVTSIASVADTAEEKFVPYYDLFMPSLKHIVENAVQKELRLLRGKTIECISLIGLAVGKEKFMQDASDVMQLLLKTQTDFNDMEDDDPQISYMISAWARMCKILGKEFQQYLPVVMGPLMKTASIKPEVALLDTQDMENMSDDDGWEFVNLGDQQSFGIKTAGLEEKSTACQMLVCYAKELKEGFVEYTEQVVKLMVPLLKFYFHDGVRVAAAESMPLLLECARVRGPEYLTQMWHFMCDALIKAIGTEPDSDVLSEIMHSFAKCIEVMGDGCLNNEHFEELGGILKAKLEEHFKNQELRQVKRQDEDYDEQVEESLQDEDDNDVYILTKVSDILHSIFSSYKEKVLPWFEQLLPLIVNLICPHRPWPDRQWGLCIFDDVIEHCSPASFKYAEYFLRPMLQYVCDNSPEVRQAAAYGLGVMAQYGGDNYRPFCTEALPLLVRVIQSADSKTKENVNATENCISAVGKIMKFKPDCVNVEEVLPHWLSWLPLHEDKEEAVQTFNYLCDLIESNHPIVLGPNNTNLPKIFSIIAEGEMHEAIKHEDPCAKRLANVVRQVQTSGGLWTECIAQLSPEQQAAIQELLNSA [IPO5]”: the “solubility in G1/S (log2)” value in data set [1] was found to be 0.177. In addition, the melting temperature in data set [2] (cell cycle stage: G1/S) is 54 °C; in data set [2] (cell cycle stage: mitosis), 53.5 °C. The “solubility change mitosis (log2)” value in data set [3] is -0.0935. Further, the results for the thermal stability score in data set [4] (setting [5]) and in data set [4] (cell cycle stage: mitosis) were 1.46 and 1.41, respectively.

Consider “MVMKASVDDDDSGWELSMPEKMEKSNTNWVDITQDFEEACRELKLGELLHDKLFGLFEAMSAIEMMDPKMDAGMIGNQVNRKVLNFEQAIKDGTIKIKDLTLPELIGIMDTCFCCLITWLEGHSLAQTVFTCLYIHNPDFIEDPAMKAFALGILKICDIAREKVNKAAVFEEEDFQSMTYGFKMANSVTDLRVTGMLKDVEDDMQRRVKSTRSRQGEERDPEVELEHQQCLAVFSRVKFTRVLLTVLIAFTKKETSAVAEAQKLMVQAADLLSAIHNSLHHGIQAQNDTTKGDHPIMMGFEPLVNQRLLPPTFPRYAKIIKREEMVNYFARLIDRIKTVCEVVNLTNLHCILDFFCEFSEQSPCVLSRSLLQTTFLVDNKKVFGTHLMQDMVKDALRSFVSPPVLSPKCYLYNNHQAKDCIDSFVTHCVRPFCSLIQIHGHNRARQRDKLGHILEEFATLQDEAEKVDAALHTMLLKQEPQRQHLACLGTWVLYHNLRIMIQYLLSGFELELYSMHEYYYIYWYLSEFLYAWLMSTLSRADGSQMAEERIMEEQQKGRSSKKTKKKKKVRPLSREITMSQAYQNMCAGMFKTMVAFDMDGKVRKPKFELDSEQVRYEHRFAPFNSVMTPPPVHYLQFKEMSDLNKYSPPPQSPELYVAASKHFQQAKMILENIPNPDHEVNRILKVAKPNFVVMKLLAGGHKKESKVPPEFDFSAHKYFPVVKLV [NAA35]”, for which the “solubility in G1/S (log2)” value in data set [1] was -0.305. For the same sequence, the melting temperature in data set [2] (cell cycle stage: G1/S) is 51.5 °C; in data set [2] (cell cycle stage: mitosis), 51 °C. The “solubility change mitosis (log2)” value in data set [3] was -0.198. The thermal stability score was 0.213 in data set [4] (setting [5]) and 0.348 in data set [4] (cell cycle stage: mitosis).

Take “MSADGAEADGSTQVTVEEPVQQPSVVDRVASMPLISSTCDMVSAAYASTKESYPHIKTVCDAAEKGVRTLTAAAVSGAQPILSKLEPQIASASEYAHRGLDKLEENLPILQQPTEKVLADTKELVSSKVSGAQEMVSSAKDTVATQLSEAVDATRGAVQSGVDKTKSVVTGGVQSVMGSRLGQMVLSGVDTVLGKSEEWADNHLPLTDAELARIATSLDGFDVASVQQQRQEQSYFVRLGSLSERLRQHAYEHSLGKLRATKQRAQEALLQLSQVLSLMETVKQGVDQKLVEGQEKLHQMWLSWNQKQLQGPEKEPPKPEQVESRALTMFRDIAQQLQATCTSLGSSIQGLPTNVKDQVQQARRQVEDLQATFSSIHSFQDLSSSILAQSRERVASAREALDHMVEYVAQNTPVTWLVGPFAPGITEKAPEEKK [PLIN3]”: in data set [1], the “solubility in G1/S (log2)” value was found to be 0.715. For the same sequence, the melting temperature in data set [2] (cell cycle stage: G1/S) is 56.7 °C; in data set [2] (cell cycle stage: mitosis), 57.3 °C. The “solubility change mitosis (log2)” value in data set [3] amounted to 0.0467. The thermal stability score is -0.144 in data set [4] (setting [5]) and 0.126 in data set [4] (cell cycle stage: mitosis).
